Experimental data published in paper PMC11225919.

Molecular target: T1, Fur (6xHis-tagged) (Salmonella enterica serovar Infantis 119944) (UniProt A0A4Z0KGQ7)
T1 sequence: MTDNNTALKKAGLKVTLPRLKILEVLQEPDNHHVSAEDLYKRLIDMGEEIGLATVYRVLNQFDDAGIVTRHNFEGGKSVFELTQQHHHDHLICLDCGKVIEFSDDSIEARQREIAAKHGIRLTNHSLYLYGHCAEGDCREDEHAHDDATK
Assay: EMSA

Sequence: CCGGGGTCGCGCCCCCATAAACGCCTCCCTGACAGAGGCCCGGATACCCCATCCGGGCCTCTGTTCTTTCCGCCTGTTACCAACCCGAAACGGGCATAAATAAACCCGTTTCGGGTAGCATACAATTGTTAATAATTATTATTCTCATATGAGCAATGCTTTTCGGTAAGACGTGCCATCAGGAGGAAGA (double strand) [irp2 promoter (pESI)]
- binding: binds
